From article PMC5900712

Target: T1, YanA86D (monomer) (UniProt Q01842 1-499, A86D)
T1 sequence: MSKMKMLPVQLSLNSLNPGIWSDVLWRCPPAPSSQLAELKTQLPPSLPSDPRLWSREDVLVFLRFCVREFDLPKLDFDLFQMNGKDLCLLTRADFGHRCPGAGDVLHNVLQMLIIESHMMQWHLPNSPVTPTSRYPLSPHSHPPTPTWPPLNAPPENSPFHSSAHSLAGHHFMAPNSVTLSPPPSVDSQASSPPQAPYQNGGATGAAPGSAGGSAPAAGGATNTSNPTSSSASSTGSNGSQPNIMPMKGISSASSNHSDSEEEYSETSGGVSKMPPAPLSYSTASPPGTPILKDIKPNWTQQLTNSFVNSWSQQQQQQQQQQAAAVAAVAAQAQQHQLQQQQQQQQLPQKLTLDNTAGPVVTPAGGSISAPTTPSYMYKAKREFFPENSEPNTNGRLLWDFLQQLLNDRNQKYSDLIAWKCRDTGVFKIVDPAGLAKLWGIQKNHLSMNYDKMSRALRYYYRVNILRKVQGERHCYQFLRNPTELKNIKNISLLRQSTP
Experiment: competition

B1: MHE ETS site 6 (dsDNA)
DNA 1: AAATGCTTAAACAGGGAAATCGTCTTGG
DNA 2: CCAAGACGATTTCCCTGTTTAAGCATTT
B1: no binding.
